Assay results taken from the nanobody polyreactivity screen of Harvey et al. (2022).

Experiment: yeast display, Sf9 membrane polyspecificity reagent, FACS + sequencing; frameworks hold sequencing errors
How it was run: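 Nanobodies came from a synthetic yeast display library in Saccharomyces cerevisiae BJ5465, induced with galactose for 36–48 hours and stained for 1 hour at 4 °C with 10% biotinylated, detergent-solubilized Sf9 membrane reagent. Cells were enriched on streptavidin microbeads and then FACS-sorted, with low and high (top ~1%) gates set on anti-HA fluorescence for expression and streptavidin fluorescence for reagent binding. Each polyreactivity label reflects the gate a clone came from. Genes were amplified by colony PCR, sequenced by MiSeq 2 × 250 and filtered by CDR length.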

Sequence	polyreactivity (PSR sort gate)
QVQLVESGGGLVQAGGSLRLTCAASGRTFSVNAMGWYRQAPGKERELVASINWSGGSTYYADSVKGRFTISRDNAKNTVYLQMNSLKPEDTAVYYCAADHSYWDWWSYYYWGQGTQVTVSS	low polyreactivity
QVQLVESGGGLVQAGGSLRLSCAASGLTFYFNAMVWYRQAPVKERQLVAAIDWGGGSTYYADSVKGRFTISRDNAKNTVYLQMNSLNPEDTAVYYCGARGYYYNYDVNYWVQGTQVTVSS	low polyreactivity
QVQLVESGGGLVQAGGSLRLSCASSGFSFLSYTMGWYRQAPGKERELVAAITSGGSTYYADSVKGRFTISRDNAKNTVYLQMNSLKPEDTAVYYCAVTYRWHTFIYDYWGQGTQVTVSS	low polyreactivity
QVQLVESGGGLVQAGGSLRLSCDASGSTIPTYAMGWYRQAPGKERELVASISVTTGSTYYADSVKGRFTISRDNAKNTVYLNMKSLKPEDTAVYFCAKRTYSRKFRGSYNYWGQGTEVTVSS	high polyreactivity
QVQLVESGGGLVQAGGSLRLSCAAYGYIIDRYAMGWYRPAPGKERELVAAISSDGSTYYADSVKGRFTISRDNAKNTVYLQMNSLKPEDTAVYYGAADGGESAWGGYDYWGQGSQVTVSS	low polyreactivity
QVHLVESGGGLVQAGVSLRLSCPASGIIFWFYAMGWYRQSPGKERQLVAAISGDGDSTYYADSVKGRFTISRDNAKNTVYLQMNSLKPEDTAVYYCAAEWDPVFATDEDDYWGQRTQVTVSS	low polyreactivity
QVQLVESGGGLVQAGGSLRLICAASGYTFPRYTMGWYRQAPGKERELVAAITSSGSTNYADSVKGRFTISRDNAKNTVYLQMNCLKPEDTAVYYCATLYRDWWSGYLEVDYWGQGTQVTVSS	high polyreactivity
QVQLVESGGGLVQAGGSLRLSCAASGSTFGSYAMGWYRQAPGKERELVAAITSSGGRTYYADSVKGRFTISRDNSKNTVYLQMNSLKPEDTAVYYCAARPRGGVFEYGYWGQGTQVTVSS	high polyreactivity
QVHLQESGGLVQAGGLRLSCAASGSVSYHEAMGWYRQAPAKERELVATISFGANTNYADSVKGRFTISRDNAKHTVYLHMNSLKPEDTAVYYCAAESLFDDYYGYWGQGTQVTVSS	low polyreactivity
QVQLVESGGGLVQAGGSLRLSCAASGITFGPYAMGWYRQAPGKERELVAAITWGGGSTYYADSVKGRFTISRDNAKTTVYLQMNSLKPEDTAVSYCNAEGSTTSRYLPYDYWGQGTQVTVSS	low polyreactivity
QVQLVESGGGLVQAGGSLRLSCAASGRTSRQYAMGWYRQAPGKEREFVAAITWSDSGTYYADSVKGRFTISRDNAKNTVYLQMNSLKPEDTAVYYCAAERYLSFDRYLYEYYYWGQGTQVTVSS	low polyreactivity
QVQLVESGGGLVQAGGSLRLSCAASGRTFAGNAMGWYRQAPGKEREFVASITASGVNTYYADSVKGRFTISRDNAKNTVYLQMNSLKPEDTAVYYCNKRNRWTPFYTYDYWGQGTQVTVSS	low polyreactivity
QVQLVESGGGLVQARGSLRLSCAAYGLTLRGYAMGWYRQAPGKERELVAAISGSGTSTYYADSVKWRFTISRDNAKNTVYLQMNSLKPEDTAVYYCAAVKVRKGLEMGYWGQGTQVTVSS	high polyreactivity
QDQLVESGGGLVQAGGSLRLSCAASGSIFGRYAMGWYRQAPGKERELVANITSGDSTNYADSVKGRFTISRDNAKNTVYLQMNSLKPEDTAVYYCAADTIYFYYYRHWYSKYYYWGQGTQVTVSS	high polyreactivity
QVQLVESGGGLVQAGGSLRLSCAASGGIFRLYGMGWYRQAPGKERELVAAIRQSGGRTYYADSVKGRFTISRDNAKNTDYLQMNSLKPEDTAVYYCAADLLYRSSGTVRSDYSRYDYWGQGTQVTVSS	low polyreactivity
QVQLVESAGGLVQAGGSLRLSCAAYGIIFKIYAMGWYRQAPGKERELVAAITRSGTRTYYADSVKGRFTISRDNEKNTVYFQMNSLKPEDTAGYYCNAYTSLAYDLDYWGQGTQVTVSS	high polyreactivity
QVQLVESGGGLVQARGSLRLSCAASGSIFQYNAMGWYRQAPGKERELVAAINGGGSTYYADSVKGRFTISRNNAKNTVYLQLTSLNPEDTAVYYCNADAMDEDWRGYWGQGTQVTVSS	low polyreactivity
QVQLVESGGGLVQAGASLRLSCAASGSNSKSYAMGWYRPAPGKERELVAAISWRGGSTYADSVKGRFTNSRDNAKNTVYFQMNSQKPVDTAVYYWAATNYGTFWGGQSERYDYWGQGTQVTVSS	low polyreactivity
QVQLVESGGGLVQARGSLLLSSAASGLIFQTYTMGWYRQAPGKERELVAAITSSGGRTYYADSVKGRFTISRDNAKNSVFLQKNSLKPEDTAVYYCAARRPPSAGMGYWGQGTQVTVSS	high polyreactivity
QVQLVESGGGLVQAGGSLRLSCAASGSILGGNSMGWYRQATGKERVLVAAITFSGGGTYYADSVKGRFTISRDNAKKTVYLQMNSLKPEDSAVYYCAADKDGYTYEFDYWGQGTQVTVSS	low polyreactivity
QVQLVESGGGLVQAGGSLRLSCAASGSTFSNNTMGWYRQAPGKERELVAAISWRGTRTYYADSVKGRFTISRDNAKNTVYLQMNSLKPEDTAVYYCNKLPTYPDYGYDSWGQGTQVTVSS	high polyreactivity
QVQLQESGGGLVQGGGSLRLSCAASGSIYRYWYMGWYRQAPGKERELVASITEGATTNYAYSVKAALPLAAITRNTVYLQMDSMKPEDTAVYYRAASFGSTYDLVYWGQGTQVTVSS	high polyreactivity

Sequence	polyreactivity (PSR sort gate)
QVQLVESGGGLVQAGGSLRLSCAASGLIFYLYAMGWYRQAPGKERELVAAITSGGGSTYYADSVKGRFTISRDNAKNTVYLQMNSLKPEDTAVYYCAARLVLYITVVYEDDYWGQGTQVTVSS	low polyreactivity
QVQLVESGGGLVQAGGSLRLSCAASGFIFGYYAMGWYRQAPGKERELVAAISKSGGSTYYADSVKGRFTISRDNAKNTVYLQMNSLKPEDTAVYYCAARYTRPFGPFDYWGQGTQVTVSS	low polyreactivity
QVQLVESGGGLVQAGGSLRLSSASSGSTFPGYTMRWYRPAPGKARELVAYITASDSSTYYADSEKGRFTISRDNAKNTVYLQINSLKPEDTAVYYSAKPPRHTWSFVDYRYEYWGQGTQGTVSS	low polyreactivity
QVQLVESGGGLVQAGGSLRLSCAASGRIFQGYAMGWYRQAPGKERELDAAITVRGGTTYYADSVKGRFTISRDNAKNTVYLQMNRRKPEDTAVYYCNAAKLIHCYQYVYPASNSRYYYWGQGTQVTVSS	low polyreactivity
QVQLVESGGGLVQAGGSLRLSCAASGSIFDRYAMGWYRQAPGKERELVASISNRGGRTFYADSVKGRFTISRDNAKNTVYLQMNSLKPEDTAVYYCARKTYYTGDFLGREYGYWGQGTQVTVSS	low polyreactivity
HVQLQESGGGLVQAGGSLRLSCAASGNISYSRNMGWYRQAPGKERELVAAIDRGAITYYADSVKGRFTISRDNAKNTVYLQRYSLKPEDTAVYYCAAEYHDRWDHRYWGQGTQVTVSS	high polyreactivity
QVQLVESGGGLVQAGGSLLLSCAASGLTFRRYNMGWYRQAPGKERELVAAISYSGGSTYYADSVKGRFTISRDNAKNTVYLQMNSLKPEDTAVYYCNDRYARVKQYGYWGQGTQVTVSS	low polyreactivity
QVQLVESGAGLVQAGGSLRLSCAASGLTFLQNALGWSRQAPGNERELVAAINIGTNTYADSVKGRFTISRDNAKNTVYLQMNSLKPEDTAVDYCNTDSAPYYWLSDNYDSWGQGTQVTVSS	low polyreactivity
QVQLVESGGGLVQAGGSLRLSCAASGYILGVYAMGWYRQAPGKERELVASISRSGGSTYYADSVKGRFTISRDNAKNTVYLQMNSLKPEDTAVYYCATRSRTAHFRLRYDYWGQGTQVTVSS	low polyreactivity
QVQLLESGGGLVQPGGSLRLSCAASGSTFYDYAMGWYRTAPGKEREFVADIYSNGGSTYYAHSVKGRFTISRDNANYTVYLQMNSLKPEDTAVYYCASVLRPRQGRRYDYWGQGTQVTVSS	low polyreactivity
QVQLVESGGGLVQAGGSLRLSCAASGINFGQNAMGWYRQAPGKERELVAAITISVGSTYYADSVKGRFTISRDNAKNTVYLQMNSLKPEDTAVYYCAARRVTWKVIARGYRYGYWGQGTQVTVTS	low polyreactivity
QVQLVESAGGLVQAGGSLRLSCAASGSIFILNAMGWYRQAPGKERELVAAISWSGGRTNYADSVKGRFTISRDNAKNTVYLHMNRLKPEDTAVYSCAARVTPYRGFYYWGQGTQVTVSS	high polyreactivity
QVQLVESGGRLVQAGGSLRLSCAASGSTFDYNAMGWYRQEPGKESEFVAAITSTGGNTYYADSVKGRFTISRDNAKNTVYLQMNSLKPEDTAVDYCNKDVARYPYGKFDYWGQGTQVTVSS	low polyreactivity
QVQLVESGGGLVQAGGSLRLSCAASGRTFAAYAMGWYRQAPGKEREFVADITYSGGSTTYADSVKGRFTISRDNAKNTVYLLMNSLNPEDTAVYYCNKLAYTPGWRGFVWYDYWGQGTQVSVSS	low polyreactivity
QVQLVESGGGLVQAGGSLRLSCAASGRIFRWNAMGWYRQAPGKERELVAVISSGGSTNYADSVKGRFTISRDNAKNTVYLQMNSLKPEDTAVYYCAKGLIRYSHLDYWGQGTQVTVSS	low polyreactivity
QVQLVESGGGLVQAGGSLRLSCAASGSTFRYYAMGWYRQAPGKERELVAAITRGDSTNYADSVKGRFTISRDNAKNTVYLQMNSLKPEDTAVYYCNAGDGPDEEYDYWGQGTQVTVSS	low polyreactivity
QVQLVESGGGLVQAGGSLRLSCAASGFTFYSNAMGWYRQAPGKERELVARITKRGGSTYYADSVKGRFTISRDNAKNTVYLQMNSLKPEDTAVYYCAADDGSDAEYYYWGQGTQVTVSS	high polyreactivity
QVQLVESGGGLVQAGGSLRLSCAASGRTFSYYAMGWYRQAPAKERELVAAIRSTGSTNYADSVKGRFTISRDNAKNTVYLQMNSLKPEDTAVYYCAARKYYQRGYDYWGQGTQVTVSS	high polyreactivity
QVQLVESGGGLVQAGGSLRLSCAASGNILRGYAMGWYRQAPGKERELVAAIDTRGGRTNYADSVKGRFTISRDNAKNTVYLQMNSLKPEDTAVYYCNALGYYSFGHEYWGQGTQVTVSS	low polyreactivity
QVQLVESGGGLVQAGGSLRLSCAASGTTFSVNAMGWYRQAPGKERELVAAIDYSGGSTYYADSVKGRFTISRDNAKNTVYLQMNSLKPEDTAVYYCNADAYGTPEFTSYAVRYDYWGQGTQVTVSS	low polyreactivity
QVQLVESGGGLVQAGGSLRLSCAASGSTFLRYAMGWYRQAPGTERELVAALSYSGGSTYYADSVKGRFTISRDTAKKTVSLQMNSLKPEDTAVYYCNAGVFANDNGGRLDQFTWEYEYWGQGTQVTVSS	low polyreactivity
